In publication PMC4338599:

Target: Ku70-Ku80 heterodimer (Ku);PAXX WT (PAXX1-204, C9orf142) (human?;human, UniProt P12956;P13010;Q9BUH6 1-609;1-732;1-204, |)
Test: EMSA

Chain of Ku70-Ku80 heterodimer (Ku);PAXX WT (PAXX1-204, C9orf142) (P12956 whole entry, chain 1 of 3): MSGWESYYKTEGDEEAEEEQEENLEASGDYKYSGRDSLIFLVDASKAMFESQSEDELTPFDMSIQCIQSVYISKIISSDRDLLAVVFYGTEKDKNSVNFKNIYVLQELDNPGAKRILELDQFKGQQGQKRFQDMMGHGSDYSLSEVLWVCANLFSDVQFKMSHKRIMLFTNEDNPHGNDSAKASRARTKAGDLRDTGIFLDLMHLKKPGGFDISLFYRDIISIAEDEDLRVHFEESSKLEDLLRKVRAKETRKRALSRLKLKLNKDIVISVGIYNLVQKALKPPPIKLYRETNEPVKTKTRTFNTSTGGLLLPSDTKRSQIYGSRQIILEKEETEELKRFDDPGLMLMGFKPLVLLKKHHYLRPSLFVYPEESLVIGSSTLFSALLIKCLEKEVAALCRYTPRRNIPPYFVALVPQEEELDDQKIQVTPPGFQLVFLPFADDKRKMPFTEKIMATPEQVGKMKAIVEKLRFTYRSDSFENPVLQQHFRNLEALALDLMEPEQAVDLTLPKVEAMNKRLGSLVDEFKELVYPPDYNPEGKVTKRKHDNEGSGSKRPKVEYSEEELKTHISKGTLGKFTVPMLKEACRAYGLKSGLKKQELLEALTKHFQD
Chain of Ku70-Ku80 heterodimer (Ku);PAXX WT (PAXX1-204, C9orf142) (P13010 whole entry, chain 2 of 3): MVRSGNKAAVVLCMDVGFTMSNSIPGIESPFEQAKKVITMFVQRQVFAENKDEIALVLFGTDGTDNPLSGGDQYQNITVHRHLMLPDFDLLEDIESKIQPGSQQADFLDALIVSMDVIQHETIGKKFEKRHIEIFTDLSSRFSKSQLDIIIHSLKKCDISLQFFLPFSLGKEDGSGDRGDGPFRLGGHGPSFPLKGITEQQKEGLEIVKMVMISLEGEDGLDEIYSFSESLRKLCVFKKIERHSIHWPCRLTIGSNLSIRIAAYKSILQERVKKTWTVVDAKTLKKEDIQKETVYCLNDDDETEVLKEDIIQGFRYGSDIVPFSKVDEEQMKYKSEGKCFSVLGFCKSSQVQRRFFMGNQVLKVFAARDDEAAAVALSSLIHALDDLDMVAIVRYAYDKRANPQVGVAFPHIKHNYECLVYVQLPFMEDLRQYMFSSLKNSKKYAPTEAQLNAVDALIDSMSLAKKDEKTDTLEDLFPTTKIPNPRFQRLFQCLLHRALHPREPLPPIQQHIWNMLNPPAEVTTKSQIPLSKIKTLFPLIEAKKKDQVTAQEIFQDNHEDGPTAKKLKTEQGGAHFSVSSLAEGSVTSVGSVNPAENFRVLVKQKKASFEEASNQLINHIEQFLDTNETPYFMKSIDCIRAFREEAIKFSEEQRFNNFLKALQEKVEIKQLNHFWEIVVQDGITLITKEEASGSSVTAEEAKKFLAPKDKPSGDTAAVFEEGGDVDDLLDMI
Chain of Ku70-Ku80 heterodimer (Ku);PAXX WT (PAXX1-204, C9orf142) (Q9BUH6 whole entry, chain 3 of 3): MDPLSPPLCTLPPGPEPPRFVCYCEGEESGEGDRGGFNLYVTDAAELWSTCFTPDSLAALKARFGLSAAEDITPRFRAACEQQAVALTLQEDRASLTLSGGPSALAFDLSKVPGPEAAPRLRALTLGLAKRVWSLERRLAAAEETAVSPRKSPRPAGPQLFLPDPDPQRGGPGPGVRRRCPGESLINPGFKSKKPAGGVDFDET

B1: 50-bp 6-FAM dsDNA (dsDNA)
DNA 1: TAAATGCCAATGCTGCTGATACGTACTCGGACTGATTCGGAACTGTAACG
DNA 2: CGTTACAGTTCCGAATCAGTCCGAGTACGTATCAGCAGCATTGGCATTTA
  binding result: binds
